The target in test [1] is GFP with His-tag at the C-extreme (pETsa-GFP-his) [GFP: P42212]. The test can be described thus: detection of diluted antigen with 5 µg purified IgG (data not shown).
The target of test [2] is GFP with His-tag at the N-extreme (pETsa-his-GFP) [GFP: P42212]. The description is as above.

On to “His-tag MAb (Invitrogen, Carlsbad, USA) (antibody)”, for which the antigen dilution at which detected in test [1] and in test [2] was 32 × dilution each time.
